{"source": "patent US20180057553A1", "about": "“CONJUGATE AND USE THEREOF” (The University of Tokyo, priority 2015, published 2018)", "target": "recombinant human TNF-alpha (Life Technologies) (human) (UniProt P01375)", "sequence (P01375 77-233 limits assumed)": "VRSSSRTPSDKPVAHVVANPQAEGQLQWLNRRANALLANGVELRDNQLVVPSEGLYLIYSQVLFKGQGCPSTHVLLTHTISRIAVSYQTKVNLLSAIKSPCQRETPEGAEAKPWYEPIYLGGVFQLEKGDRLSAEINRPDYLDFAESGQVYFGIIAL", "assay": "SPR (Biacore), Etanercept amine-coupled to chip, TNF-alpha as analyte"}
{"substance": "Etanercept (soluble TNF receptor, product name Enbrel, Takeda Pharmaceutical Company) (Fc fusion)", "values": [{"measurement": "Kd", "value": 0.313, "unit": "nM"}]}
